Assay [1] has as its target T1, hFc tagged human LAG3 D1-D2 recombinant protein (human, UniProt P18627 23-261).
T1 construct: range 23-261; generated by Chempartner; also called hLAG3 D1-D2; not shown: human IgG Fc tag
T1 sequence (looked up): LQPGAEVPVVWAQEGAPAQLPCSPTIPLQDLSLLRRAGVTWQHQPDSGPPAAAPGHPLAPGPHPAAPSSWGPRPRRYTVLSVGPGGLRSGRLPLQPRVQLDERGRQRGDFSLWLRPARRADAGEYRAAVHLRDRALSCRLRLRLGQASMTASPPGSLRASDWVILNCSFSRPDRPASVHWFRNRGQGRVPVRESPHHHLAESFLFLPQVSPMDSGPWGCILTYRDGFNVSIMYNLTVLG
The experiment in a line: ELISA, coated hFc-hLAG3 D1-D2. On the technique in general: ELISA stands for enzyme-linked immunosorbent assay.

Assay [2] concerns the target T2, human LAG3, full length, stably expressed on cells (human, UniProt P18627 23-525).
T2 construct: whole, on cells; also called CHOK1-human LAG3
T2 sequence (looked up): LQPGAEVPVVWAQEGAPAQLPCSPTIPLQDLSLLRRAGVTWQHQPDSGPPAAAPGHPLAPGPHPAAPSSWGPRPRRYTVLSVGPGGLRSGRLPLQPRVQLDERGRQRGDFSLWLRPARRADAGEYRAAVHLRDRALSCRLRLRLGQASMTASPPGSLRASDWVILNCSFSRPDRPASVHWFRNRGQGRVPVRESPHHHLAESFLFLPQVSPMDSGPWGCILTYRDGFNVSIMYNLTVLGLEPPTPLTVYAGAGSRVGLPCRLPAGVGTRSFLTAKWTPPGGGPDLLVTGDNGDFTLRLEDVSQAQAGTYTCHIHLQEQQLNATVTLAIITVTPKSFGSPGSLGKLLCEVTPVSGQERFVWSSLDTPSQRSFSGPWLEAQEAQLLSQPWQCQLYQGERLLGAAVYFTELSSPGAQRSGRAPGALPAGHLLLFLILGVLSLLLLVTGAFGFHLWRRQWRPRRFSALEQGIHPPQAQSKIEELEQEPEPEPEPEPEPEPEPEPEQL
The assay can be described thus: FACS on 293F-human LAG3 cells. Here is the method: (§1) Briefly the antibodies were incubated with 2×10⁵ target cells at 4° C. for 1 hour. After washing, fluorescence labeled anti-mouse IgG 2nd antibody (Life Technologies) was added and incubated at 4° C. for 1 hour. Geometric median fluorescence intensity (MFI) was detected and EC₅₀ was calculated using GraphPad Prism9.0.

The target in assay [3] is T3, mouse LAG3, full length, stably expressed on CHOK1 cells (mouse, UniProt Q61790 24-521).
T3 construct: whole, on cells
T3 sequence (looked up): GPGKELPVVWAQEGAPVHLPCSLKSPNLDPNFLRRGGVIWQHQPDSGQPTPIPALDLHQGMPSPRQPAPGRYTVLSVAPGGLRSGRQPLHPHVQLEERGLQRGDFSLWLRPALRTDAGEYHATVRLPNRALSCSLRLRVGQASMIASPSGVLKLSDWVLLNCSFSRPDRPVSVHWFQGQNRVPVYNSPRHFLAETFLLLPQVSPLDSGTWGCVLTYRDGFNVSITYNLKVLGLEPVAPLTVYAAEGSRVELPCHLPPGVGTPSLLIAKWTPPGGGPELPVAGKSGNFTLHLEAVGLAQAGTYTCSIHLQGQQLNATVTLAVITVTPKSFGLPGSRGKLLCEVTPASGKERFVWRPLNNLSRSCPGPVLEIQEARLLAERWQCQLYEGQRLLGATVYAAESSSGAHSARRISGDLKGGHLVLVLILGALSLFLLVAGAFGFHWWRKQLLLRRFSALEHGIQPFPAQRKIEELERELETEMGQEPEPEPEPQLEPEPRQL
The experiment in a line: FACS on CHOK1 cells expressing mouse LAG3. On the procedure:
as §1

The target in assay [4] is T4, cyno LAG3, full length, stably expressed on 293F cells (cyno).
T4 construct: whole, on cells
The assay can be described thus: FACS on 293F-cyno LAG3 cells, 20 nM antibody. Here is the method:
as §1

Assay [5] deals with T5, hFc tagged human LAG3 ECD recombinant protein (human, UniProt P18627 23-450).
T5 construct: range 23-450; also called biotin labelled hFc tagged human LAG3 ECD; not shown: human IgG Fc tag
T5 sequence (looked up): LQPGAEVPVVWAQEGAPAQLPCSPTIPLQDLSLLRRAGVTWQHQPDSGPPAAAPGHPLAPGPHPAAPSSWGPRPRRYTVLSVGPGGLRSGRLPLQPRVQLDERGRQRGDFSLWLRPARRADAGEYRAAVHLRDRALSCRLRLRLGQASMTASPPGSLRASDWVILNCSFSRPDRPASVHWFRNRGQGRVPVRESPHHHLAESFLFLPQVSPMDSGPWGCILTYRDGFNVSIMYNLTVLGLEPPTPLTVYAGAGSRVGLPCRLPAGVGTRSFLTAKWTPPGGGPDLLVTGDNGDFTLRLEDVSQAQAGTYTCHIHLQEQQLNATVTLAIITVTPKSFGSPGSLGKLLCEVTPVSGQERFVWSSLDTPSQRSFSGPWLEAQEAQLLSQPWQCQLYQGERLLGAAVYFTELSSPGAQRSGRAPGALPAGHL
The assay can be described thus: competitive FACS: hFc-LAG3 ECD binding to Raji cells (MHC II). Here is the method:
Competitive FACS assay was used to determine whether the purified hybridoma antibodies can block LAG3 and MHC II interaction. […] After washing, dye labeled anti-human Fc 2nd antibody (Sigma) was added and incubated at 37° C. for 1 hour. Fluorescence intensity was detected.

Assay [6] concerns the target T5, hFc tagged human LAG3 ECD recombinant …. The experiment in a line: competitive ELISA: excess competitor, biotin hFc-LAG3 ECD, coated BAP-050. Here is the method:
(§2) Competitive ELISA assay was used for epitope binning of the purified hybridoma antibodies. […] After washing, HRP labeled anti-streptavidin (SA) 2nd antibody (Sigma) was added and incubated at 37° C. for 1 hour. Then, 100 μl/well of TMB solution (Biotechnology) was added. After incubation for 15 minutes at room temperature, the reaction was stopped by the addition of 50 μl of 1N HCl. OD 450 nm was read. Competition ratio was calculated.

The target is the same in assay [7]. The experiment in a line: competitive ELISA: excess competitor, biotin hFc-LAG3 ECD, coated BMS-986016. Here is the method:
as §2

Assay [8] has as its target T2, human LAG3, full length, stably …. The experiment in a line: FACS on 293F cells stably expressing human LAG3. On the procedure: as §1
MFI was detected and EC₅₀ was calculated using GraphPad Prism9.0.

In assay [9] the target is T6, mFc tagged human LAG3 ECD recombinant protein (human, UniProt P18627 23-450).
T6 construct: extracellular domain; purchased from Biointron; not shown: mouse IgG Fc (mFc) tag
T6 sequence (looked up): T5 sequence (looked up)
The experiment in a line: competitive FACS: mFc-LAG3 ECD binding to Raji cells (MHC II). Here is the method:
Activity of the purified chimeric antibodies to block LAG3 and MHC II interaction was determined by competitive FACS assay. […] After washing, dye labeled anti-mouse Fc 2nd antibody (Sigma) was added and incubated at 37° C. for 1 hour. Fluorescence intensity was detected.

Assay [10] addresses T7, human LAG3 ECD recombinant protein (plate coated, tag not stated) (human, UniProt P18627 23-450).
T7 construct: extracellular domain
T7 sequence (looked up): T5 sequence (looked up)
The experiment in a line: competitive ELISA format I: His-FGL1 binding to coated LAG3 ECD. Here is the method: (§3) After washing, HRP labeled anti-His 2nd antibody (Sigma) was added and incubated at 37° C. for 1 hour. Then, 100 μl/well of TMB solution (Biotechnology) was added. After incubation for 15 minutes at room temperature, the reaction was stopped by the addition of 50 μl of 1N HCl. OD 450 nm was read. […] After washing, HRP labeled anti-SA 2nd antibody (Sigma) was added and incubated at 37° C. for 1 hour. Then, 100 μl/well of TMB solution (Biotechnology) was added. After incubation for 15 minutes at room temperature, the reaction was stopped by the addition of 50 μl of 1N HCl. OD 450 nm was read. […] The competition assay of format III is a competitive FACS assay. […] After washing, dye labeled anti-His 2nd antibody (Sigma) was added and incubated at 37° C. for 1 hour. Fluorescence intensity was detected.

The target of assay [11] is T5, hFc tagged human LAG3 ECD recombinant …. The assay can be described thus: competitive ELISA format II: biotin hFc-LAG3 ECD binding to coated His-FGL1. On the procedure: as §3

Residue numbers refer to the chain shown, from its start. In names and notes the source's numbering stands.

B1: Antibody 038 (antibody, V domains shown)
VH: DVQVQESGPGLVKPSQSLSLTCSVTGYSITSGYYWNWIRQFPGNKLEWMGYISYDGSNEYNLSLKNRLSITRDTSKNQFFLKLNSVTTEDTATYYCAREEDGYYGGMDYWGQGTSVTVSS
VL: DIVMTQSHKFMSASVGVRVSITCRASQDVDTAVAWYQQKPGQSPKLLIYWASTRHTGVPDRFTGSGSGTDFTLTISNVQSEDLADYFCQQYSSYPYTFGGGTKLEIK
notes: mouse hybridoma antibody
What is called EC50 is the concentration giving half of the maximal effect. Broadly, the IC50 is the concentration needed to halve the response being measured. Turning to B1, the figures for the EC50 in assay [1] and in assay [2] were 0.07 nM and 1.12 nM, respectively. Further, in [3], the binding result is “no binding”. In addition, in [4], the “MFI at 20 nM” value came to 142 MFI. Besides, the IC50 in assay [5] was found to be 4.2 nM. In assay [5], the “TOP blocking (%)” value came out at 100%. Moreover, the results for the “% competition” value in [6] and in assay [7] were 6.4% and 33.5%, respectively.

B2: 027c (antibody, human IgG4, V domains shown)
VH: EVKILQSGGGLVQPGGSLKLSCAASGIDFSRYWMSWVRRTPGKGLEWIGEINPDSSTINYAPSLKDKFIISRDNAKNTLYLQMSKVRSEDTALYYCARLGIIPTYHYGSSGYYYAMDYWGQGTSVTVSS
VL: DVLMTQTPLSLPVSLGDRASISCRSSQTIVHGNGHTSLEWYLQKPGQSPQLLIYKVSNRFSGVPDRFSASGSGTDFTLTISRVEAEDLGVYYCFQVSHVPYTFGGGTKLEIK
notes: human IgG4 S228P / kappa chimeric antibody; also called chimeric antibody 027; not shown: human kappa light chain constant region (pcDNA3.4-hIgGk vector)
Take B2: in assay [8], it took 2 nM to reach a half-maximal effect (EC50) and the “TOP MFI” value worked out at 302. Besides, in [9], the IC50 turned out to be 4.5 nM and the “TOP blocking (%)” value was found to be 91.2%. In assay [10], the “Blocking ratio at 66.7 nM (%)” value stood at 26.7%. Besides, in assay [11], the IC50 turned out to be 6.13 nM and the “TOP blocking (%)” value came to 78.3%.

B3: 047c (antibody, human IgG4, V domains shown)
VH: QVQLQQSGAELARPGASVKLSCKASGYSFTSYGVNWVKQRTGQGLEWIGEIYPRSGNTYYNERFGDKATLTADKSSSTAYMEIRSLTSEDSAVYFCARGGTYDGYYYAMDYWGQGTSVTVSS
VL: DIVLTQSPASLAVSLGQRATISCRASESVDNFGSSFMHWYQQKPGQAPKLLIYRASNLESGIPARFSGSGSRTDFTLTINPVETDDVATYYCQQVNKDPRTFGGGTKLEIK
notes: human IgG4 S228P / kappa chimeric antibody; also called chimeric antibody 047; not shown: human kappa light chain constant region (pcDNA3.4-hIgGk vector)
Consider B3, for which, in [8], the EC50 came to 1.3 nM and the “TOP MFI” value was 249. In [9], the IC50 came out at 3.6 nM and the “TOP blocking (%)” value was found to be 90.4%. The “Blocking ratio at 66.7 nM (%)” value in assay [10] came to 14%. Further, in [11], the IC50 stood at 35.9 nM and the “TOP blocking (%)” value came to 12.6%.

B4: Antibody 021 (antibody, V domains shown)
VH: DIQLQESGPGLVKPSQSLSLTCSVTGYSITSGYYWNWIRQFPGNKLEWMGDISYDGGNNYNPSLKNRISITRDTSKNQFFLKLNSVTTEDTATYYCARDITLTGAMDYWGQGTSVTVSS
VL: B3 VL with F32Y, S34I, K43R, A47P, V95S, R100Y
notes: mouse hybridoma antibody
In the case of B4, the EC50 was determined as 0.02 nM in assay [1] and 5.52 nM in assay [2]. In [3], the binding result is listed as “no binding”. In assay [4], the “MFI at 20 nM” value came out at 105 MFI. The IC50 in [5] amounted to 4 nM. In assay [5], the “TOP blocking (%)” value turned out to be 98.6%. For the same molecule, the “% competition” value in assay [6] came to 57.1%; in assay [7], 6.9%.

B5: Antibody 057 (antibody, V domains shown)
VH: B3 VH with Y27F, V34I, R63K, F64L, G65K, D66G, K67E, K74R, I83L
VL: B3 VL with D1N, S67G, R72G, N80D
notes: mouse hybridoma antibody
For B5, the EC50 in [1] came to 0.02 nM; in [2], 1.04 nM. In assay [3], the binding result is given as “no binding”. Also, in assay [4], the “MFI at 20 nM” value worked out at 83.4 MFI. Further, in [5], the IC50 was determined as 5.1 nM. Also, the “TOP blocking (%)” value in assay [5] is 87.6%. Besides, the entries for the “% competition” value in assay [6] and in assay [7] were 87.7% and 29.3%, respectively.

The values above are taken from patent publication US20250313625A1 (ELPISCIENCE SUZHOU BIOPHARMA, published 2025).
